# Measurements: IntAct's records for PubMed 16824107
# B1: Cytochrome c biogenesis ATP-binding export protein CcmA (Escherichia coli (strain K12)), P33931 (parent)
# chain: MGMLEARELLCERDERTLFSGLSFTLNAGEWVQITGSNGAGKTTLLRLLTGLSRPDAGEVLWQGQPLHQVRDSYHQNLLWIGHQPGIKTRLTALENLHFYHRDGDTAQCLEALAQAGLAGFEDIPVNQLSAGQQRRVALARLWLTRATLWILDEPFTAIDVNGVDRLTQRMAQHTEQGGIVILTTHQPLNVAESKIRRISLTQTRAA
# partner: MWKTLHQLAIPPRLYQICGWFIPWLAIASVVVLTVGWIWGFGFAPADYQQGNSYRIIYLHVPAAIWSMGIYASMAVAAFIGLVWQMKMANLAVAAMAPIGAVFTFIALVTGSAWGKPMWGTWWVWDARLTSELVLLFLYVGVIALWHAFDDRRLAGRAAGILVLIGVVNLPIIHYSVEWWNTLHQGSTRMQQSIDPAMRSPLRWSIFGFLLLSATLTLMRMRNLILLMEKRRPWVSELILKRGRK
# B2: Cytochrome c biogenesis ATP-binding export protein CcmA (Escherichia coli (strain K12)), P33931 (parent)
# chain: B1 chain
# partner: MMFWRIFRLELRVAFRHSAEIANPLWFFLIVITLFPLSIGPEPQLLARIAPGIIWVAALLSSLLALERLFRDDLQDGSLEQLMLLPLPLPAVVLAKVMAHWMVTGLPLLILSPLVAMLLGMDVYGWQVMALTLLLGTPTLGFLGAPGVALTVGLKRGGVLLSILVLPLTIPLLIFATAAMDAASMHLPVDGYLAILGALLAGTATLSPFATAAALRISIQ
# Variants of: B1
# Settings: with ccmc_ecoli ccmC
row,effect of a mutation on the interaction,Variant
1,with no effect,G132A

# Variants of: B2
# Settings: with ccmb_ecoli ccmB
row,effect of a mutation on the interaction,Variant
1,with no effect,G132A
